Non-standard residues stand in square brackets, D forms with d. pS = N[C@@H](COP(=O)(O)O)C(=O)O
Tests used:
[1] = molecular target: fluorescent BACH1-derived peptide (Fluorescein-GGSRSTpSPTFNK-NH2); assay: fluorescence polarisation
[2] = molecular target: wild-type BRCA1 BRCT domain (human, UniProt P38398); assay: fluorescence polarisation

Row | Molecule | Kd [1] [nM] | Kd [2] [nM]
1 | BRCA1 BRCT domain R1699W variant (from UniProt P38398) (domain or fragment) | > 200000 | –
2 | Fluorescein-GGSRST[pS]PTFNK-NH2 [fluorescent BACH1-derived peptide (Fluorescein-GGSRSTpSPTFNK-NH2)] | – | 1200 ± 100
